Measurements from US5856138A, “Human parathyroid hormone muteins and production thereof” (Takeda Chemical Industries, Ltd., priority 1991, dated 1999).
Numbering of substitutions follows the chain as printed.

Key:
[1] = target: human PTH receptor
[2] = target: T1, human PTH receptor (Mus musculus, UniProt P41593); test: cAMP production in osteoblast-like MC3T3-EI cells (modified method of Shigeno et al.); format: cell-based; settings: specific activity of the muteins on the natural type human PTH (=1.0), 0.01-100 nM analogue, room temperature, 30 minutes
T1 construct: mouse cranial bone-derived osteoblast-like cell strain MC3T3-EI cultivated on a 96-well multiplate; endogenous in cells; host or cells: MC3T3-E1 (mouse cranial bone-derived osteoblast-like cells)
T1 sequence (P41593 27-591): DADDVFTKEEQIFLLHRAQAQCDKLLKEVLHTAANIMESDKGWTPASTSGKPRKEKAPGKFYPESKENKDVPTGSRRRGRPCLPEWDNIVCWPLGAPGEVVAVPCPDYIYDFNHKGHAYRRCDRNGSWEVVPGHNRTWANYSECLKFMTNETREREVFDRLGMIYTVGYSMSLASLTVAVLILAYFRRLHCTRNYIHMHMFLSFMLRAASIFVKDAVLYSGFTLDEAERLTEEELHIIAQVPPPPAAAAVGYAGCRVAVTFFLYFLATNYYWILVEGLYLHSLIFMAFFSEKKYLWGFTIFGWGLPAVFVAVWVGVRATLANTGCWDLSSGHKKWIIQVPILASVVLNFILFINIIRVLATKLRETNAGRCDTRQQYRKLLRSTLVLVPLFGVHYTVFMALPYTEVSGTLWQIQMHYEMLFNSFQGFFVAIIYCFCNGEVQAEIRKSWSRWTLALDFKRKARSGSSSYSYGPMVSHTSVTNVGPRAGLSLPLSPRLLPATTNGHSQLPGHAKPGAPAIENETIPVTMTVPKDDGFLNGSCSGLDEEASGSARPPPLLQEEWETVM
Procedure: The biological activity of human PTH muteins obtained in Examples 2 to 6 and natural type human PTH were evaluated by a modification of the method reported by Shigeno et al. [The Journal of Biological Chemistry 263. 18369-18377 (1988)]. A culture solution (Hank's solution containing 20 mM N-2-hydroxyethylpiperazine-N'-2-ethanesulfonic acid (HEPES), 0.1% bovine serum albumin (BSA) and 0.5 mM isobutylmethylxanthine) containing 0.01, 0.1, 1, 10 or 100 nM analogue was added in an amount of 100 μl to mouse cranial bone-derived osteoblast-like cell strain MC3T3-EI cultivated on a 96-well multiplate (Nunclon, Nunc), followed by reaction at room temperature for 30 minutes. After addition of 100 μl of 0.2N hydrochloric acid, the mixture was immersed in boiling water for 2.5 minutes, and cyclic adenosine monophosphate (cAMP) produced by a human PTH receptor was extracted from the cells. The total cAMP in the culture solution and the cells was assayed using a commercial radioimmunoassay kit (cyclic AMP [^125 I] kit "Du Pont-Daiichil", Daiichi Kagaku Yakuhin). An increase in cAMP production depending on the concentration of the human PTH mutein added was always observed. The specific activity of the muteins on the natural type human PTH is as follows: […]

Molecule [Leu18] human PTH (1-84) (ligand) has a cAMP production in MC3T3-EI cells; specific activity on the natural type human PTH (relative to natural type human PTH) [1] of 0.2.

For [Leu8] human PTH (1-84) (ligand), the cAMP production in MC3T3-EI cells; specific activity on the natural type human PTH (relative to natural type human PTH) [1] was 1.

“Human PTH: natural type parathyroid hormone, polypeptide hormone consisting of 84 amino acids [reference compound]” was tested, and the “Specific Activity” value [2] was 1.0.

Molecule [Leu8,18] human PTH (1-84) (ligand) has a cAMP production in MC3T3-EI cells; specific activity on the natural type human PTH (relative to natural type human PTH) [1] of 0.3.

In the case of natural type human PTH (1-84) (ligand), the cAMP production in MC3T3-EI cells; specific activity on the natural type human PTH (relative to natural type human PTH) [1] is reported as 1.

[Cys35] human PTH (1-84) (ligand) was tested, and the cAMP production in MC3T3-EI cells; specific activity on the natural type human PTH (relative to natural type human PTH) [1] was 0.6.

B1: [Leu^8 ] human PTH (protein)
chain: SVSEIQLLHNLGKHLNSMERVEWLRKKLQDVHNFVALGAPLAPRDAGSQRPRKKEDNVLVESHEKSLGEADKADVNVLTKAKSQ
B1 was tested, and the “Specific Activity” value [2] was 1.0.

B2: [Leu^18 ] human PTH: human PTH (1-84) mutein in which methionine at the 18-position was substituted by leucine (protein)
chain: B1 chain with L8M, M18L
For B2, the “Specific Activity” value [2] was 0.2.

B3: [Leu^8,18 ] human PTH: human PTH (1-84) mutein in which methionine residues at the 8- and 18-positions were substituted by leucine (protein)
chain: B1 chain with M18L
With B3 the “Specific Activity” value [2] was 0.3.

B4: [Cys^35 ] human PTH: human PTH (1-84) mutein in which valine at the 35-position was substituted by cysteine (protein)
chain: B1 chain with L8M, V35C
In the case of B4, the “Specific Activity” value [2] is reported as 0.6.
